This data set concerns the molecule itself. Kind of data set: electron microscopy; purified dynamin 2 on lipid nanotubes, in the absence of GTP.

These results are taken from article PMC7949082, “Mutant BIN1-Dynamin 2 complexes dysregulate membrane remodeling in the pathogenesis of centronuclear myopathy” (The Journal of Biological Chemistry, 2020).

B1: purified recombinant wild-type human dynamin 2 (His-tagged) (enzyme, UniProt P50570-1 1-870, looked up)
chain: MGNRGMEELIPLVNKLQDAFSSIGQSCHLDLPQIAVVGGQSAGKSSVLENFVGRDFLPRGSGIVTRRPLILQLIFSKTEHAEFLHCKSKKFTDFDEVRQEIEAETDRVTGTNKGISPVPINLRVYSPHVLNLTLIDLPGITKVPVGDQPPDIEYQIKDMILQFISRESSLILAVTPANMDLANSDALKLAKEVDPQGLRTIGVITKLDLMDEGTDARDVLENKLLPLRRGYIGVVNRSQKDIEGKKDIRAALAAERKFFLSHPAYRHMADRMGTPHLQKTLNQQLTNHIRESLPALRSKLQSQLLSLEKEVEEYKNFRPDDPTRKTKALLQMVQQFGVDFEKRIEGSGDQVDTLELSGGARINRIFHERFPFELVKMEFDEKDLRREISYAIKNIHGVRTGLFTPDLAFEAIVKKQVVKLKEPCLKCVDLVIQELINTVRQCTSKLSSYPRLREETERIVTTYIREREGRTKDQILLLIDIEQSYINTNHEDFIGFANAQQRSTQLNKKRAIPNQGEILVIRRGWLTINNISLMKGGSKEYWFVLTAESLSWYKDEEEKEKKYMLPLDNLKIRDVEKGFMSNKHVFAIFNTEQRNVYKDLRQIELACDSQEDVDSWKASFLRAGVYPEKDQAENEDGAQENTFSMDPQLERQVETIRNLVDSYVAIINKSIRDLMPKTIMHLMINNTKAFIHHELLAYLYSSADQSSLMEESADQAQRRDDMLRMYHALKEALNIIGDISTSTVSTPVPPPVDDTWLQSASSHSPTPQRRPVSSIHPPGRPPAVRGPTPGPPLIPVPVGAAASFSAPPIPSRPGPQSVFANSDLFPAPPQIPSRPVRIPPGIPPGVPSRRPPAAPSRPTIIRPAEPSLLD
notes: human dynamin 2 (NM_001005360), wild type, from the same Entry clone as the mammalian constructs; The vector is named pET15b in one paragraph and pET23b in another; no removal of the His tag is told; also called Dynamin 2 WT; DNM2WT
Consider B1, for which the binding result is given as “binds”.
